{"source": "patent US20260139001A1", "target": "SARS-CoV-2 Spike RBD, Wuhan (SARS-CoV-2) (UniProt P0DTC2)", "data": [{"substance": "Ribosomally constructed Wuhan-NS (VHH72 V104UAG construct translated with NBDxK-tRNACUA)", "values": [{"measurement": "normalized tube fluorescence", "value": 0.58}]}]}
